The values that follow are results of earlier work, collected in PMC6935268.

By pKd is commonly meant −log10 of the Kd, conventionally taken in molar units.

The target in this series is CD80 (Homo sapiens) (UniProt P33681).

pKd: −log10 of the molar value.

UniProt P33681, sequence (P33681 35-242): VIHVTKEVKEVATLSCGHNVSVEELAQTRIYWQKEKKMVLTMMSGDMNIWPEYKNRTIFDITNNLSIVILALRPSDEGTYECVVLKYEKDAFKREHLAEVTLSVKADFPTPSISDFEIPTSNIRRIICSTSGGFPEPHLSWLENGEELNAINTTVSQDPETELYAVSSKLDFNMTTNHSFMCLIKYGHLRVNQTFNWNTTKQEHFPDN

In the case of PD-L1 (from UniProt Q9NZQ7), the pKd is 4.75.
